Measured values published in publication PMC5715112.

Target: HIV integrase fused to the VP16 activation domain (pEF-VP16, CHO cells)
Experiment: mammalian two-hybrid luciferase reporter assay in CHO cells
Conditions: 48 h after transfection; Firefly luciferase normalised to Renilla; parent: est. 1.4; read off a plot

| Substance | response |
| --- | --- |
| GAL4 DNA binding domain (DBD)-LEDGF IBD fusion (pM1, CHO cells) R405A | 1.3 |
| GAL4 DNA binding domain (DBD)-LEDGF IBD fusion (pM1, CHO cells) K364A | 0.08 |
| GAL4 DNA binding domain (DBD)-LEDGF IBD fusion (pM1, CHO cells) V408A | 0.4 |
| GAL4 DNA binding domain (DBD)-LEDGF IBD fusion (pM1, CHO cells) L363A | 0.25 |
| GAL4 DNA binding domain (DBD)-LEDGF IBD fusion (pM1, CHO cells) K407A | 3.3 |
| GAL4 DNA binding domain (DBD)-LEDGF IBD fusion (pM1, CHO cells) I365A | 0.02 |
| GAL4 DNA binding domain (DBD)-LEDGF IBD fusion (pM1, CHO cells) L368A | 0.01 |
| GAL4 DNA binding domain (DBD)-LEDGF IBD fusion (pM1, CHO cells) F406A | 0.04 |
| GAL4 DNA binding domain (DBD)-LEDGF IBD fusion (pM1, CHO cells) K402A | 0.6 |
| GAL4 DNA binding domain (DBD)-LEDGF IBD fusion (pM1, CHO cells) D366A | 0.02 |

Target: GAL4 DNA binding domain (DBD)-LEDGF IBD fusion (pM1, CHO cells)
Experiment: two-hybrid; mammalian three-hybrid competition in CHO cells: GAL4 DBD-IBD bait, HIV IN-VP16 prey and a free competitor from pEF-BOS-cyto; Firefly/Renilla luciferase
Conditions: not given

| Substance | percent inhibition of the luciferase signal of HIV IN-VP16 with Gal4-IBD [%] |
| --- | --- |
| free HIV IN (competitor, pEF-BOS-cyto, CHO cells) (enzyme) | 90 |
